# Results: the DeepSol protein solubility set
# Assay: soluble on expression in E. coli; label from the status in PepcDB or PDB records
row,Sequence,soluble on expression in E. coli
1,MGSDKIHHHHHHMPQLQTNNTALSTQQSAEMKTTRLLKVLKIMFPRENWTSQKLTSEVNVKGSGVYRFEHGTIAHLGQPGGPRTEHLWEMTVDRVWAKALIEAHNQAQESEALVRTQAEVYPKDWYGLRLRSPAEAAIAEALQTKGVLFFVNTGCRLHNHSKQYETREVDFLVFHQGKVRILEVDGITYHQNPLADYKRDRLFDREGIRTSRFSAQECFENPNGVVEEFLGLFKF,not soluble
2,MAHHHHHHMAAAPSATAPKHNYTLGTNASQLELYKYLKTVPPIPELRQAVTIKKYEEASVDDTLYPLIDEHQIIMVVGAFFGDEGKGKTVDAVARHPACTCVARVNSGENAGHTVFDDIGRKYVFNLAPSSLLTPNTRNYVSSECVMDPISFMEREIGQFIKSNMPYKDKLFVGNVFVVTPYHKLLDLLGSAPNSSTLKGMSPIHASKVTKRGIRLDHIFNDEGVLRARLAKDMDTYYGLLKVKGLTDKDVVRRCQEENADGVERVPGYVVDFARAENKIDYLVKLYTERVKNNKDFPRRCDVTHELRAALARGEKLLLEGPQSYWLSNAREKFWESTTSADTTAGGLLASAQFNFQRYKVLVINVHKAPGSSRVGIGANPSSFVPQDYYSAQDIKTLEALPKGGCVDFDKIQNFFYTKAFNTESKTFNGIYEPLEYEDATGKYNIGVAMSIASARHHGECGAVTKKPRVCGFFDCVLHFEVNAVQGPYLSISAVDRGDDYDRIGITIAYVYYDVGNKMVDANGRVYKNGDIIKAGDPVPCEMALYHCYPIVKVINGWKGAPIAASKRRPNEPLPKGVCEFIANVEFFTGAKVISIGNGPRGSDIIYLKQ,soluble
3,MKKKILKVATALTIMGGVAFSAEGATAKAELAAKPQQASQAIFKDVPAGHWSYEAIQTLAEQEIMLGYGNGVFGFGHNVTREQVAALIYRALDLDEEFGEDEELESPYNDIVDDNSTMFPFEVLAVTELGIFTGDEKGNFRPKDTLTRAEMAQVLTRAFGLQVQGLAGFKDVPKGHWAENAINAVGSNGISVGDGNGNFAPNMKVTREQYAQFLFRAL,not soluble
4,GIPKCPEDWGASSRTSLCFKLYAKGKHEKKTWFESRDFCRALGGDLASINNKEEQQTIWRLITASGSYHKLFWLGLTYGSPSEGFTWSDGSPVSYENWAYGEPNNYQNVEYCGELKGDPTMSWNDINCEHLNNWICQIQKGQTPKPD,soluble
5,MGSDKIHHHHHHMSSVSLQDFDAERIGLFHEDIKRKFDELKSKNLKLDLTRGKPSSEQLDFADELLALPGKGDFKAADGTDVRNYGGLDGIVDIRQIWADLLGVPVEQVLAGDASSLNIMFDVISWSYIFGNNDSVQPWSKEETVKWICPVPGYDRHFSITERFGFEMISVPMNEDGPDMDAVEELVKNPQVKGMWVVPVFSNPTGFTVTEDVAKRLSAMETAAPDFRVVWDNAYAVHTLTDEFPEVIDIVGLGEAAGNPNRFWAFTSTSKITLAGAGVSFFLTSAENRKWYTGHAGIRGIGPNKVNQLAHARYFGDAEGVRAVMRKHAASLAPKFNKVLEILDSRLAEYGVAQWTVPAGGYFISLDVVPGTASRVAELAKEAGIALTGAGSSYPLRQDPENKNLRLAPSLPPVEELEVAMDGVATCVLLAAAEHYAN,not soluble
6,MLKIGVITMALLSFLNAGWLGNLFDNTPTPYYTMPIDLSKTGNVAETDIRIDKEYRTGIALNYDFRRQKNKMTRNEYNNIKVFFGNSYTSGTAIPVKLKIEKIMDKNETTILNDIIIVDNNGGHELHSSLIKEIALSQGKYRIKVETTEDFSELSDLSVLVEIYYIRAPK,not soluble
7,SLEKRQGLEDIGRVRATIKNEFPSLTLLTQDWGDWDETYKFSQNHNQEYLEANVPSLTTLSKSTKIDFLALYDLNAIELFKGAYHPDMEREVNLHSTPSIRSLVASVLKTNREKKGLFKTDEGLLALVARPILTSEGRGPSHGVIIMGRFLSQLLLSSVGKKCPIPFELFIQDDKRLSAPEKALFAKLSATAPRFTPVFHQGFVYQTYPDIE,not soluble
8,MKIDYLTLFPEMFDGVLNHSIMKRAQENNKLQINTVNFRDYAINKHNQVDDYPYGGGQGMVLKPEPVFNAMEDLDVTEQTRVILMCPQGEPFSHQKAVELSKADHIVFICGHYEGYDERIRTHLVTDEISMGDYVLTGGELPAMTMTDAIVRLIPGVLGNEQSHQDDSFSDGLLEFPQYTRPREFKGLTVPDVLLSGNHANIDAWRHEQKLIRTYNKRPDLIEKYPLTNEDKQILERYKIGLKKG,not soluble
9,MTENCCVPGGTVMILSCSGGSNVGQLSNQAAVELTREGVGKMFCLAGIGGQLSGFVQSARDVPEMVTIDGCSVGCAKAILEKARVPLKSYLVLTDLGIEKNKNFELSSHDIRRVKEAVKALLFEK,soluble
10,MSLSNRAGEILIVEDSPTQAEHLKHILEETGYQTEHVRNGREAVRFLSLTRPDLIISDVLMPEMDGYALCRWLKGQPDLRTIPVILLTILSDPRDVVRSLECGADDFITKPCKDVVLASHVKRLLSGVKRTEERYSRESITLAFGNEGHHHHHH,soluble
11,MNANLPPSAISELHGPRLLLRAWRDSDREAFAEMCADPQVMEFFPSVLDRAQSDALVDRVQAHFAERGYGPWALELPGEAAFIGFTGLFDVTMDVHFAPTVEIGWRLAPAYWGRGLAREAAETALDFAFERLRLPEVVAFTTPPNRRSWGLMERLGMRRDPAEDFDHPLLAADHPMRRHILYRVDAARWAER,not soluble
12,MNVMMQKVHGSENDFFLLDETQFERSLTAEEIEQLRIQLCSRETGLLAGADGLLLVGEGTHGTSNARMRVINSDGSEASMCGNGLRTVARYLAEKNQEKSFTVETMFADLKVRQAPNLAEEVATYQVEISPVSFEAVTIPMHLGVQTLIDEIVPALSNTIRFTAVAVPNPHLVAFVDHETLNGPEFERIATYVNNENPYFPEGINVSFVEILGKNQLFVRTYERGVGFTSACGTAMCASSLLYTLLKDGVFYEEITVKNTGGMVKTVVHETSDGSYWMELIGNATITHLIEGSLTDLLNGAFEKITITETNEQKHYQEFLQTLSQK,not soluble
13,SLRVSASMSLVVLTFLLTCFMVRPMTAVTSDPLDFHWPGSRILAVGDLHGDIGNTMLLLYGAGVVDEDGNWIAGDTLLIQTGDVVDRGPDGKRIYDYFASLSAQATEQGGKIIQLLGNHDVMNICGDFRYAHPSETIEFGGALERRRQFMDGGHYGNMLRSFPLSIKANGVIFSHAGIPSDFAVLGLSKLTQQLREELANDCKLHNSRFYNEAMGSSTGDLFVAGSQGPLWTRVYSMGQMTKICEELDKTLGILDSEKMVIGHTVQESGNIEVYCGGRLLLIDTGVSRYVADSPRMLEIRDGTFFEWRLDISKQGTDSEPNVRGSKRQLNIPPLKN,not soluble
14,MGSDKIHHHHHHMNNTTENGQYFVAAFEPGAEHPALPTWASCNDNGAELALSAPSTVSKKPLTDVPGAFQLLNVLSADECQRLISVSETMGFLPDAAVSLPRNVRHNDSLTWVVDNTTERLIWDRIAGVMTDDLGIFEGKAALGLNNRFRFYRYNEGDYFKPHSDGSWPGSQVIDGELVRDAFGDRYSQLTFLILLTEDFEGGATRFLVNADKPNLPAKHGDNMRQVDVRTPAGSVLCFPHGMHPLHCIHSSEPIFSGVKYIIRTDVLFEL,not soluble
15,MSPGSSTGMVSEKCGDAESKRAPYPPPLRLARRVCYPQYTQKSLDMRAQEKLVGRKRDMKMARFLAKQAKESKEMVKKAAKETTEKTTKNDSTV,not soluble
16,MKFHVIDRENWNREQYFEHYLELKCTFSMTVNVDITLLIKKVHQKGIKFYPTFIYIISRIINKHKEFRTCFNDEGVLGYWEEMIPSYTIFHKDDKSFSSIWTDYSSDFRIFYKNYEEDMRCYASVHGLLTKENIPPNIFPISGIPWTSFTGFNLNINNDGDFLLPIITCGKYFNEENKIMLPVSLQVHHSVCDGYHVSRFIEDLQELSNSCNEWLK,not soluble
17,MPKNKGKGGKNRRRGKNENDFMKRELDLKEEGQEYGQVSKMLGNGRVQVFCFDGKQRVCHIRGKLRKKVWINVGDIILVGLRDYQDDKGDVILKYTPDEARRLKNEGLIPENAKLNENDEQDEGEVEFLDHVGDEGEAGEAKSDSDSSDSDSEKSDEEAGSDKEEESDDDSEEESDEDSDDSDNIREEDLAAGRGFKEDTRRGGNRGGKNKYGKRR,soluble
